# Test results published in publication PMC9482650, “Quantitative fragmentomics allow affinity mapping of interactomes” (Nature Communications, 2022).
# T1: MPP6, Q9NZW5
# T1 sequence (Q9NZW5 125-219, limits assumed, looked up): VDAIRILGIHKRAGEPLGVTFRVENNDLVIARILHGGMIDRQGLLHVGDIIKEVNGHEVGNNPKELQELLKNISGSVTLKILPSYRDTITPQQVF
# T2: RAPGEF6, Q8TEU7
# T2 sequence (Q8TEU7 525-625, limits assumed, looked up): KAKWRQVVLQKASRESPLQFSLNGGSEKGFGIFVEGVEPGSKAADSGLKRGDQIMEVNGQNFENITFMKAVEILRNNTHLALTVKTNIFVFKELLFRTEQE
# T3: MPDZ_5, O75970
# T3 sequence (O75970 695-796, limits assumed, looked up): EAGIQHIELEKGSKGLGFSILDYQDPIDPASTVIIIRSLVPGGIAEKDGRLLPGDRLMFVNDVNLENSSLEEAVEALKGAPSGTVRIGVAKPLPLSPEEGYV
# T4: MPDZ_10, O75970
# T4 sequence (O75970 1624-1722, limits assumed, looked up): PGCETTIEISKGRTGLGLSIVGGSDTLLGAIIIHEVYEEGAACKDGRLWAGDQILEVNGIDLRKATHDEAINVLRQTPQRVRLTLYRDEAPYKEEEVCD
# T5: RADIL, Q96JH8
# T5 sequence (Q96JH8 971-1071, limits assumed, looked up): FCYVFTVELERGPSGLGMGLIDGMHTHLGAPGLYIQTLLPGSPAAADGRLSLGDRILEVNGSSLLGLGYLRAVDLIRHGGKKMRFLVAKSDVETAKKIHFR
# T6: MPP7, Q5T2T1
# T6 sequence (Q5T2T1 134-230, limits assumed, looked up): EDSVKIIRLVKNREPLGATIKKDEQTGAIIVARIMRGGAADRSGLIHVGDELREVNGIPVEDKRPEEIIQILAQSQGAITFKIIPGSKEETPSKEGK
# T7: GRIP1_7, Q9Y3R0
# T7 sequence (Q9Y3R0 999-1096, limits assumed, looked up): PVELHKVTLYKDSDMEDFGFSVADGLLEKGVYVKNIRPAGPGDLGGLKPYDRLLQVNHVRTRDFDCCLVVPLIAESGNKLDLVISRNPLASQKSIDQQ
# T8: GRIP1_2, Q9Y3R0
# T8 sequence (Q9Y3R0 145-248, limits assumed, looked up): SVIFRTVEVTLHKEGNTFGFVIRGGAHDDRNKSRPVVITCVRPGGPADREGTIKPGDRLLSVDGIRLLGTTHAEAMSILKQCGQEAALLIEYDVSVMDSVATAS
# T9: DFNB31_2, Q9P202
# T9 sequence (Q9P202 274-371, limits assumed, looked up): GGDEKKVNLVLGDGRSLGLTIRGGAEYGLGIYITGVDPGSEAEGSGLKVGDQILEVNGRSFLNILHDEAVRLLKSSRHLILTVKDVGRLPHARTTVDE
# T10: LRRC7, Q96NW7
# T10 sequence (Q96NW7 1440-1537, limits assumed, looked up): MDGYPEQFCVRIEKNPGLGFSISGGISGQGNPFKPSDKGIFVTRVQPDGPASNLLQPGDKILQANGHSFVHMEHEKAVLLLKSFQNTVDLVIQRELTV
# Molecular target: IL16_1, Q14005
# Test: holdup assay
# Design: key: below the threshold = too weak to quantify, mostly under pKd 3.1 to 4
# Conditions: plain residues with an end cap or a label only (N-terminal biotin on a linker: ado-ado)
# IL16_1, Q14005, sequence (Q14005 210-306): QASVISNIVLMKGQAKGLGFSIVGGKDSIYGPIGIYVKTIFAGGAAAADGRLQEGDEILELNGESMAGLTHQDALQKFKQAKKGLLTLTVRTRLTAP
row,Binder,pKd
1,"KEKASTETEC [TRPM1, Q7Z4N2]",below the threshold
2,"MQILSKPEFI [NPSR1, Q6W5P4]",below the threshold

# Molecular target: T1, MPP6, Q9NZW5
# Test: holdup assay
# Design: key: below the threshold = too weak to quantify, mostly under pKd 3.1 to 4
# Conditions: plain residues with an end cap or a label only (N-terminal biotin on a linker: ado-ado)
row,Binder,pKd
1,"KEKASTETEC [TRPM1, Q7Z4N2]",below the threshold
2,"MQILSKPEFI [NPSR1, Q6W5P4]",below the threshold

# Molecular target: GRIP2_6, Q9C0E4
# Test: holdup assay
# Design: key: below the threshold = too weak to quantify, mostly under pKd 3.1 to 4
# Conditions: plain residues with an end cap or a label only (N-terminal biotin on a linker: ado-ado)
# GRIP2_6, Q9C0E4, sequence (Q9C0E4 648-740): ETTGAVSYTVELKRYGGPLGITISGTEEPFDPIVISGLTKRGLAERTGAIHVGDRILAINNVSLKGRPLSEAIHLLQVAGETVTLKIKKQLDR
row,Binder,pKd
1,"KEKASTETEC [TRPM1, Q7Z4N2]",below the threshold
2,"MQILSKPEFI [NPSR1, Q6W5P4]",below the threshold

# Molecular target: NHERF4_1, Q86UT5-2
# Test: holdup assay
# Design: key: below the threshold = too weak to quantify, mostly under pKd 3.1 to 4
# Conditions: plain residues with an end cap or a label only (N-terminal biotin on a linker: ado-ado)
# NHERF4_1, Q86UT5-2, sequence (Q86UT5 other isoform, or with tags, fused parts or gaps): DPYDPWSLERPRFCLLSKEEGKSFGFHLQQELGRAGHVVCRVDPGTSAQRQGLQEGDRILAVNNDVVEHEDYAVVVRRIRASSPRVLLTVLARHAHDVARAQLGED
row,Binder,pKd
1,"KEKASTETEC [TRPM1, Q7Z4N2]",3.66
2,"MQILSKPEFI [NPSR1, Q6W5P4]",3.62

# Molecular target: MAGI3_2, Q5TCQ9
# Test: holdup assay
# Design: key: below the threshold = too weak to quantify, mostly under pKd 3.1 to 4
# Conditions: plain residues with an end cap or a label only (N-terminal biotin on a linker: ado-ado)
# MAGI3_2, Q5TCQ9, sequence (Q5TCQ9 398-503): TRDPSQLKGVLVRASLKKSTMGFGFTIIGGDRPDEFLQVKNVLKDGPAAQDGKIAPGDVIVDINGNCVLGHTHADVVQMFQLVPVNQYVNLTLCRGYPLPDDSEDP
row,Binder,pKd
1,"KEKASTETEC [TRPM1, Q7Z4N2]",below the threshold
2,"MQILSKPEFI [NPSR1, Q6W5P4]",below the threshold

# Molecular target: T2, RAPGEF6, Q8TEU7
# Test: holdup assay
# Design: key: below the threshold = too weak to quantify, mostly under pKd 3.1 to 4
# Conditions: plain residues with an end cap or a label only (N-terminal biotin on a linker: ado-ado)
row,Binder,pKd
1,"KEKASTETEC [TRPM1, Q7Z4N2]",below the threshold
2,"MQILSKPEFI [NPSR1, Q6W5P4]",below the threshold

# Molecular target: FRMPD4, Q14CM0
# Test: holdup assay
# Design: key: below the threshold = too weak to quantify, mostly under pKd 3.1 to 4
# Conditions: plain residues with an end cap or a label only (N-terminal biotin on a linker: ado-ado)
# FRMPD4, Q14CM0, sequence (Q14CM0 67-160): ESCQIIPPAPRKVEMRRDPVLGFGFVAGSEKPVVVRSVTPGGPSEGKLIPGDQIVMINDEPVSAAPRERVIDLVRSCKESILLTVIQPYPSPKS
row,Binder,pKd
1,"KEKASTETEC [TRPM1, Q7Z4N2]",below the threshold
2,"MQILSKPEFI [NPSR1, Q6W5P4]",below the threshold

# Molecular target: GIPC2, Q8TF65
# Test: holdup assay
# Design: key: below the threshold = too weak to quantify, mostly under pKd 3.1 to 4
# Conditions: plain residues with an end cap or a label only (N-terminal biotin on a linker: ado-ado)
# GIPC2, Q8TF65, sequence (Q8TF65 112-203): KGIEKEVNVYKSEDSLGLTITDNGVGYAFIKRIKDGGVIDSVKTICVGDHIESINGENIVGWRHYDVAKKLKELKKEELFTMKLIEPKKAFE
row,Binder,pKd
1,"KEKASTETEC [TRPM1, Q7Z4N2]",4.1
2,"MQILSKPEFI [NPSR1, Q6W5P4]",below the threshold

# Molecular target: Inadl_4, Q8NI35
# Test: holdup assay
# Design: key: below the threshold = too weak to quantify, mostly under pKd 3.1 to 4
# Conditions: plain residues with an end cap or a label only (N-terminal biotin on a linker: ado-ado)
# Inadl_4, Q8NI35, sequence (Q8NI35 547-651): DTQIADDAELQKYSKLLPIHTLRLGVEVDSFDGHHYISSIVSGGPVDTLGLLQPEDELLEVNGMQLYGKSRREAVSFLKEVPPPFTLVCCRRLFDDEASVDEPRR
row,Binder,pKd
1,"KEKASTETEC [TRPM1, Q7Z4N2]",below the threshold
2,"MQILSKPEFI [NPSR1, Q6W5P4]",below the threshold

# Molecular target: T3, MPDZ_5, O75970
# Test: holdup assay
# Design: key: below the threshold = too weak to quantify, mostly under pKd 3.1 to 4
# Conditions: plain residues with an end cap or a label only (N-terminal biotin on a linker: ado-ado)
row,Binder,pKd
1,"KEKASTETEC [TRPM1, Q7Z4N2]",below the threshold
2,"MQILSKPEFI [NPSR1, Q6W5P4]",below the threshold

# Molecular target: T4, MPDZ_10, O75970
# Test: holdup assay
# Design: key: below the threshold = too weak to quantify, mostly under pKd 3.1 to 4
# Conditions: plain residues with an end cap or a label only (N-terminal biotin on a linker: ado-ado)
row,Binder,pKd
1,"KEKASTETEC [TRPM1, Q7Z4N2]",below the threshold
2,"MQILSKPEFI [NPSR1, Q6W5P4]",below the threshold

# Molecular target: T5, RADIL, Q96JH8
# Test: holdup assay
# Design: key: below the threshold = too weak to quantify, mostly under pKd 3.1 to 4
# Conditions: plain residues with an end cap or a label only (N-terminal biotin on a linker: ado-ado)
row,Binder,pKd
1,"KEKASTETEC [TRPM1, Q7Z4N2]",below the threshold
2,"MQILSKPEFI [NPSR1, Q6W5P4]",4.42

# Molecular target: PDZRN4_1, Q6ZMN7
# Test: holdup assay
# Design: key: below the threshold = too weak to quantify, mostly under pKd 3.1 to 4
# Conditions: plain residues with an end cap or a label only (N-terminal biotin on a linker: ado-ado)
# PDZRN4_1, Q6ZMN7, sequence (Q6ZMN7 213-318): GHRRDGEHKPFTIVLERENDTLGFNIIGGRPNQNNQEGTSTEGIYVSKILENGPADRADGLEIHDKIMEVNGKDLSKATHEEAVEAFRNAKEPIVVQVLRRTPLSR
row,Binder,pKd
1,"KEKASTETEC [TRPM1, Q7Z4N2]",below the threshold
2,"MQILSKPEFI [NPSR1, Q6W5P4]",below the threshold

# Molecular target: T6, MPP7, Q5T2T1
# Test: holdup assay
# Design: key: below the threshold = too weak to quantify, mostly under pKd 3.1 to 4
# Conditions: plain residues with an end cap or a label only (N-terminal biotin on a linker: ado-ado)
row,Binder,pKd
1,"KEKASTETEC [TRPM1, Q7Z4N2]",below the threshold
2,"MQILSKPEFI [NPSR1, Q6W5P4]",below the threshold

# Molecular target: T7, GRIP1_7, Q9Y3R0
# Test: holdup assay
# Design: key: below the threshold = too weak to quantify, mostly under pKd 3.1 to 4
# Conditions: plain residues with an end cap or a label only (N-terminal biotin on a linker: ado-ado)
row,Binder,pKd
1,"KEKASTETEC [TRPM1, Q7Z4N2]",below the threshold
2,"MQILSKPEFI [NPSR1, Q6W5P4]",below the threshold

# Molecular target: DLG4_3, P78352
# Test: holdup assay
# Design: key: below the threshold = too weak to quantify, mostly under pKd 3.1 to 4
# Conditions: plain residues with an end cap or a label only (N-terminal biotin on a linker: ado-ado)
# DLG4_3, P78352, sequence (P78352 306-403): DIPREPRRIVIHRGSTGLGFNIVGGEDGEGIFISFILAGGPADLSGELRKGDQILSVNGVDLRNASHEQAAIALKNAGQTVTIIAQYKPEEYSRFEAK
row,Binder,pKd
1,"KEKASTETEC [TRPM1, Q7Z4N2]",3.65
2,"MQILSKPEFI [NPSR1, Q6W5P4]",3.49

# Molecular target: HTRA2, O43464
# Test: holdup assay
# Design: key: below the threshold = too weak to quantify, mostly under pKd 3.1 to 4
# Conditions: plain residues with an end cap or a label only (N-terminal biotin on a linker: ado-ado)
# HTRA2, O43464, sequence (O43464 355-458): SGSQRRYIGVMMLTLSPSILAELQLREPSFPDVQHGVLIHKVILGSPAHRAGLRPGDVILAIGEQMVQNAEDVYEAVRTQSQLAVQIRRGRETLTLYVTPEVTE
row,Binder,pKd
1,"KEKASTETEC [TRPM1, Q7Z4N2]",below the threshold
2,"MQILSKPEFI [NPSR1, Q6W5P4]",3.72

# Molecular target: LDB3, O75112
# Test: holdup assay
# Design: key: below the threshold = too weak to quantify, mostly under pKd 3.1 to 4
# Conditions: plain residues with an end cap or a label only (N-terminal biotin on a linker: ado-ado)
# LDB3, O75112, sequence (O75112 1-94): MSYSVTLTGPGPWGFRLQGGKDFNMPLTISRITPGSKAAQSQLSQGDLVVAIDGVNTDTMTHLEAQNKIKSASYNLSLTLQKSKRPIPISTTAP
row,Binder,pKd
1,"KEKASTETEC [TRPM1, Q7Z4N2]",below the threshold
2,"MQILSKPEFI [NPSR1, Q6W5P4]",below the threshold

# Molecular target: T8, GRIP1_2, Q9Y3R0
# Test: holdup assay
# Design: key: below the threshold = too weak to quantify, mostly under pKd 3.1 to 4
# Conditions: plain residues with an end cap or a label only (N-terminal biotin on a linker: ado-ado)
row,Binder,pKd
1,"KEKASTETEC [TRPM1, Q7Z4N2]",below the threshold
2,"MQILSKPEFI [NPSR1, Q6W5P4]",below the threshold

# Molecular target: CASK, O14936
# Test: holdup assay
# Design: key: below the threshold = too weak to quantify, mostly under pKd 3.1 to 4
# Conditions: plain residues with an end cap or a label only (N-terminal biotin on a linker: ado-ado)
# CASK, O14936, sequence (O14936 487-570): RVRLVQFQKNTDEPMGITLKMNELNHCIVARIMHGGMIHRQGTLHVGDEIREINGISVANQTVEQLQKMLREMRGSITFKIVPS
row,Binder,pKd
1,"KEKASTETEC [TRPM1, Q7Z4N2]",below the threshold
2,"MQILSKPEFI [NPSR1, Q6W5P4]",below the threshold

# Molecular target: T9, DFNB31_2, Q9P202
# Test: holdup assay
# Design: key: below the threshold = too weak to quantify, mostly under pKd 3.1 to 4
# Conditions: plain residues with an end cap or a label only (N-terminal biotin on a linker: ado-ado)
row,Binder,pKd
1,"KEKASTETEC [TRPM1, Q7Z4N2]",below the threshold
2,"MQILSKPEFI [NPSR1, Q6W5P4]",below the threshold

# Molecular target: FRMPD2_3, Q68DX3
# Test: holdup assay
# Design: key: below the threshold = too weak to quantify, mostly under pKd 3.1 to 4
# Conditions: plain residues with an end cap or a label only (N-terminal biotin on a linker: ado-ado)
# FRMPD2_3, Q68DX3, sequence (Q68DX3 1073-1166): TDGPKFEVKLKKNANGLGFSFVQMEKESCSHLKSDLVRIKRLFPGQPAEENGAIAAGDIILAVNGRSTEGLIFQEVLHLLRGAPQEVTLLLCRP
row,Binder,pKd
1,"KEKASTETEC [TRPM1, Q7Z4N2]",below the threshold
2,"MQILSKPEFI [NPSR1, Q6W5P4]",below the threshold

# Molecular target: MAGI2_3, Q86UL8
# Test: holdup assay
# Design: key: below the threshold = too weak to quantify, mostly under pKd 3.1 to 4
# Conditions: plain residues with an end cap or a label only (N-terminal biotin on a linker: ado-ado)
# MAGI2_3, Q86UL8, sequence (Q86UL8 600-682): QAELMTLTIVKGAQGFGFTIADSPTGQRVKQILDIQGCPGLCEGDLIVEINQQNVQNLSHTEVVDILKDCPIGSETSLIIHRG
row,Binder,pKd
1,"KEKASTETEC [TRPM1, Q7Z4N2]",below the threshold
2,"MQILSKPEFI [NPSR1, Q6W5P4]",below the threshold

# Molecular target: PTPN3, P26045
# Test: holdup assay
# Design: key: below the threshold = too weak to quantify, mostly under pKd 3.1 to 4
# Conditions: plain residues with an end cap or a label only (N-terminal biotin on a linker: ado-ado)
# PTPN3, P26045, sequence (P26045 505-587): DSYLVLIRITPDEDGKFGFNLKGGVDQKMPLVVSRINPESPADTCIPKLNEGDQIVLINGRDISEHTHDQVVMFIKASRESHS
row,Binder,pKd
1,"KEKASTETEC [TRPM1, Q7Z4N2]",4.9
2,"MQILSKPEFI [NPSR1, Q6W5P4]",3.94

# Molecular target: Inadl_2, Q8NI35
# Test: holdup assay
# Design: key: below the threshold = too weak to quantify, mostly under pKd 3.1 to 4
# Conditions: plain residues with an end cap or a label only (N-terminal biotin on a linker: ado-ado)
# Inadl_2, Q8NI35, sequence (Q8NI35 238-335): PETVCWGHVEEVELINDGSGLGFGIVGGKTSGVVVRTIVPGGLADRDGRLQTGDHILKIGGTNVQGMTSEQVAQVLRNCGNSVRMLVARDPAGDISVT
row,Binder,pKd
1,"KEKASTETEC [TRPM1, Q7Z4N2]",below the threshold
2,"MQILSKPEFI [NPSR1, Q6W5P4]",below the threshold

# Molecular target: MAST1, Q9Y2H9
# Test: holdup assay
# Design: key: below the threshold = too weak to quantify, mostly under pKd 3.1 to 4
# Conditions: plain residues with an end cap or a label only (N-terminal biotin on a linker: ado-ado)
# MAST1, Q9Y2H9, sequence (Q9Y2H9 962-1065): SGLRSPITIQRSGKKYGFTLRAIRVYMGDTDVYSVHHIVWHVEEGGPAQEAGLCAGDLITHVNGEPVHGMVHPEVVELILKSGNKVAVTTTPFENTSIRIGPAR
row,Binder,pKd
1,"KEKASTETEC [TRPM1, Q7Z4N2]",4.09
2,"MQILSKPEFI [NPSR1, Q6W5P4]",3.68

# Molecular target: MAGI2_5, Q86UL8
# Test: holdup assay
# Design: key: below the threshold = too weak to quantify, mostly under pKd 3.1 to 4
# Conditions: plain residues with an end cap or a label only (N-terminal biotin on a linker: ado-ado)
# MAGI2_5, Q86UL8, sequence (Q86UL8 915-1017): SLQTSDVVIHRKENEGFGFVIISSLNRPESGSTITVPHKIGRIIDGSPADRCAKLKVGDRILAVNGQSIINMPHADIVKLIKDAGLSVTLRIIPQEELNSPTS
row,Binder,pKd
1,"KEKASTETEC [TRPM1, Q7Z4N2]",below the threshold
2,"MQILSKPEFI [NPSR1, Q6W5P4]",below the threshold

# Molecular target: T10, LRRC7, Q96NW7
# Test: holdup assay
# Design: key: below the threshold = too weak to quantify, mostly under pKd 3.1 to 4
# Conditions: plain residues with an end cap or a label only (N-terminal biotin on a linker: ado-ado)
row,Binder,pKd
1,"KEKASTETEC [TRPM1, Q7Z4N2]",below the threshold
2,"MQILSKPEFI [NPSR1, Q6W5P4]",below the threshold
